Experimental data as given in publication PMC5807433, “PP5 (PPP5C) is a phosphatase of Dvl2” (Scientific Reports, 2018).

Target: T1, FLAG-Dvl2 (full-length human Dishevelled 2) (human, UniProt O14641 1-736)
T1 construct: Dishevelled 2 (Dvl2), human, full length; also called FLAG-tagged Dvl2; full-length Dvl2; source: HEK293T, transfected (pCS2+), in lysate; also purified from transfected HEK293T with FLAG M2 beads and eluted with FLAG peptide; not shown: FLAG, N-terminal, kept
T1 sequence (looked up): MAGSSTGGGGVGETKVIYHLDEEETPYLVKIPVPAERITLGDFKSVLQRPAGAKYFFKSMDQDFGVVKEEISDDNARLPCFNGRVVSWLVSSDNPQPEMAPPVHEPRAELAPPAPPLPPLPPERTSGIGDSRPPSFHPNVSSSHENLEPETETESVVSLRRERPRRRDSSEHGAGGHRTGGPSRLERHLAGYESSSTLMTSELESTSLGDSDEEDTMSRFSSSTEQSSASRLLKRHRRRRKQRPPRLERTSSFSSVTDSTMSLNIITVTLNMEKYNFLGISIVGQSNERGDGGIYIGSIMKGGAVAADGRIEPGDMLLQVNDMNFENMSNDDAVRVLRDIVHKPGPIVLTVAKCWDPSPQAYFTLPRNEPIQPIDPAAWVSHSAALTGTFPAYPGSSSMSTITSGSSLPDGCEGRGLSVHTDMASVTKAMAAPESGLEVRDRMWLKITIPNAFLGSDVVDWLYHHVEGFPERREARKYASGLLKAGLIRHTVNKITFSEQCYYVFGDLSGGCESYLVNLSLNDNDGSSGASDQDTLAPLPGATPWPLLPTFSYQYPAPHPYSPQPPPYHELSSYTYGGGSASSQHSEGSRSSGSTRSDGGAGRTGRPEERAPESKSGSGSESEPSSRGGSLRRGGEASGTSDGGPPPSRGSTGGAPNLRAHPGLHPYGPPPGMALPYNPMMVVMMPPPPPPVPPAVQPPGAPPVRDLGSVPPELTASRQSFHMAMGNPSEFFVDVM
Assay: pull-down; GST pull-down: FLAG-Dvl2 purified from transfected HEK293T incubated with PP5 protein purified from E. coli and Glutathione Sepharose 4B beads; GST as negative control
Settings: both partners purified

B1: GST-PP5 (wild type) (enzyme, human, UniProt P53041 1-499, looked up)
chain: MAMAEGERTECAEPPRDEPPADGALKRAEELKTQANDYFKAKDYENAIKFYSQAIELNPSNAIYYGNRSLAYLRTECYGYALGDATRAIELDKKYIKGYYRRAASNMALGKFRAALRDYETVVKVKPHDKDAKMKYQECNKIVKQKAFERAIAGDEHKRSVVDSLDIESMTIEDEYSGPKLEDGKVTISFMKELMQWYKDQKKLHRKCAYQILVQVKEVLSKLSTLVETTLKETEKITVCGDTHGQFYDLLNIFELNGLPSETNPYIFNGDFVDRGSFSVEVILTLFGFKLLYPDHFHLLRGNHETDNMNQIYGFEGEVKAKYTAQMYELFSEVFEWLPLAQCINGKVLIMHGGLFSEDGVTLDDIRKIERNRQPPDSGPMCDLLWSDPQPQNGRSISKRGVSCQFGPDVTKAFLEENNLDYIIRSHEVKAEGYEVAHGGRCVTVFSAPNYCDQMGNKASYIHLQGSDLRPQFHQFTAVPHPNVKPMAYANTLLQLGMM
notes: Protein phosphatase 5 (PP5, PPP5C), wild type; Probably full length; also called PP5 protein purified from E. coli; bacterially expressed and purified PP5; source: E. coli BL21 (pPGH vector, IPTG), purified with Glutathione Sepharose 4B beads; not shown: GST, N-terminal, kept
- binding result: binds
